From patent US20240247080A1, “GLP1/GIP/NPY2 RECEPTOR TRIPLE AGONISTS” (Boehringer Ingelheim International GmbH, priority 2022, published 2024)
Starred links: 1 amine or outer side, 2 acyl side, 3 side chain; linkers in the order of their positions; H or OH if unused. Non-standard residues stand in square brackets, D forms with d. Groups on a side chain read outwards from the residue. No end group written: not given here. *: point of attachment. C20 diacid = O=C(O)CCCCCCCCCCCCCCCCCCC(=O)*; C18 diacid = O=C(O)CCCCCCCCCCCCCCCCC(=O)*; γGlu = O=C(O)[C@H](CCC(=O)[*:2])N[*:1]; εLys = N[C@@H](CCCCN[*:1])C(=O)[*:2]; AEEA = NCCOCCOCC(=O)O; Aib = CC(C)(N)C(=O)O

How the values were obtained:
Test in all cases: cell-based or functional assay
human GIP receptor = biological target: T1, human GIP receptor (human, UniProt P48546 22-466)
T1 sequence (looked up): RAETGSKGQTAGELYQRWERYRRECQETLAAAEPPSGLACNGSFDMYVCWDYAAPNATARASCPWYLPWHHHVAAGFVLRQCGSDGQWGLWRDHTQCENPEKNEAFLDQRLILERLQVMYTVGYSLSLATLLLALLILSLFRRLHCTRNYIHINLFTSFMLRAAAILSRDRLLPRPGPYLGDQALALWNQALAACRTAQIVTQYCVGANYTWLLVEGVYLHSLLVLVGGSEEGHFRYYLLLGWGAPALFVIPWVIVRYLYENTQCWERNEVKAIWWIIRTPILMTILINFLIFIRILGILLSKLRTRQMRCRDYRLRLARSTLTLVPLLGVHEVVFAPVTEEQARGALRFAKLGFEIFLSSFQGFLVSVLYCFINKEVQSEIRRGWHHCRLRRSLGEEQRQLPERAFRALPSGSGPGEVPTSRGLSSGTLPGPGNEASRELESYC

human GLP-1 receptor = human GLP-1 receptor (human, UniProt P43220 24-463)
[1] = biological target: T2, human neuropeptide Y2 (NPY2) receptor (human, UniProt P49146 1-381)
T2 sequence (looked up): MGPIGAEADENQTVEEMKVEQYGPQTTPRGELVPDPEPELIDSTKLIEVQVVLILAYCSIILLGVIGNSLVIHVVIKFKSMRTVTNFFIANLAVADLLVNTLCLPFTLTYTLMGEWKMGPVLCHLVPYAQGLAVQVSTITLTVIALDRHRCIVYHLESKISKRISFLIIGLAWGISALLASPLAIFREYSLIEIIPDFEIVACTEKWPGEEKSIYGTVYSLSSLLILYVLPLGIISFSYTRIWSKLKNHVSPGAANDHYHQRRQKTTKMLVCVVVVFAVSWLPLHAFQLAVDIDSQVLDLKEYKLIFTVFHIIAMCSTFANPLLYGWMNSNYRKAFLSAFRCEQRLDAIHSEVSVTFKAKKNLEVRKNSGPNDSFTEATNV

Row | Binder | EC50, CreLuc assay, 0.5% hP (human GIP receptor) [nM] | EC50, CreLuc assay, 100% hP (human GIP receptor) [nM] | EC50, CreLuc assay, 0.5% hP (human GLP-1 receptor) [nM] | EC50, CreLuc assay, 100% hP (human GLP-1 receptor) [nM] | EC50, CreLuc assay, 0.5% hP [1] [nM] | EC50, CreLuc assay, 100% hP [1] [nM]
1 | Y[Aib]EGTFTSDYSI[Aib]LEKQAQ[Aib]AFVQWLIK([AEEA-AEEA-γGlu-γGlu-γGlu-γGlu-C20 diacid])GGPEEPASLRHYYNWLTRQRY-NH2 (also: TFA salt) [Compound 77] | 0.32 | 2.16 | 0.24 | 16.2 | 13.7 | 46.3
2 | Y[Aib]EGTFTSDYSI[Aib]LEKQAQ[Aib]AFVEWLIK([εLys-Glu-γGlu-γGlu-γGlu-γGlu-C20 diacid])GGPSYYVSLRHYYNWLTRQRY-NH2 (also: TFA salt) [Compound 75] | 0.54 | 12.4 | 0.35 | 23.9 | 7.12 | 33.5
3 | Y[Aib]EGTFTSDYSI[Aib]LEKQAQ[Aib]EFVEWLIK([AEEA-AEEA-γGlu-γGlu-γGlu-C18 diacid])GGPESGASLRHYYNWLTRQRY-NH2 (also: TFA salt) [Compound 81] | 0.27 | 1.79 | 0.6 | 15.4 | 11.1 | 36.4
4 | YXEGTFTSDYSIXLEEQAQXAFVQWLIKGGPSSGQSLRHYYNWLTRQRY (Aib at 2, 13, 20; K28 side chain: C20DA-gGlu-Glu-gGlu-gGlu-gGlu-gGlu-eLys; C-terminal NH2) [Compound 8] | 0.12 | 1.72 | 0.04 | 1.05 | 11.6 | 43
5 | YXEGTFTSDYSIXLEKQAQXAFVQWLIKGGPSEYVSLRHYYNWLTRQRY (Aib at 2, 13, 20; K28 side chain: C20DA-gGlu-gGlu-gGlu-gGlu-gGlu-gGlu-eLys; C-terminal NH2) [Compound 78] | 0.53 | 6.64 | 0.64 | 12.2 | 12.9 | 24.6
6 | YXEGTFTSDYSIXLEKQAQXAFVEWLIKGGPSSGADLRHYLNWLTRQRY (Aib at 2, 13, 20; K28 side chain: C20DA-gGlu-gGlu-gGlu-gGlu-gGlu-gGlu-eLys; C-terminal NH2) [Compound 72] | 0.29 | 2.12 | 0.15 | 2.87 | 29.1 | 149
7 | YXEGTFTSDYSIXLEKQAQXAFVEWLIKGGPSSPESLRHYYNWLTRQRY (Aib at 2, 13, 20; K28 side chain: C20DA-gGlu-gGlu-gGlu-gGlu-gGlu-gGlu-eLys; C-terminal NH2) [Compound 73] | 0.11 | 1.61 | 0.19 | 4.76 | 32.2 | 107
8 | YXEGTFTSDYSIXLEKQAQXAFVEWLIKGGPSSGASLRHYYNWLTRQRY (Aib at 2, 13, 20; NMeR 48; K28 side chain: C20DA-gGlu-gGlu-gGlu-gGlu-gGlu-gGlu-eLys; C-terminal NH2) [Compound 83] | 0.13 | 1.06 | 0.17 | 2.87 | 28.8 | 80.6
9 | YXEGTFTSDYSIXLEKQAQXAFVEWLIKGGPSSYVSIRHYYNWLTRQRY (Aib at 2, 13, 20; K28 side chain: C20DA-gGlu-gGlu-gGlu-gGlu-gGlu-gGlu-eLys; C-terminal NH2) [Compound 9] | 0.21 | 2.03 | 0.46 | 6.64 | 15.2 | 18.9
10 | YXEGTFTSDYSIXLEKQAQXAFVEWLIKGGPSSGASLRHYYNRXTRQRY (Aib at 2, 13, 20, 44; K28 side chain: C20DA-gGlu-gGlu-gGlu-gGlu-gGlu-gGlu-eLys; C-terminal NH2) [Compound 68] | 0.32 | 2.05 | 0.12 | 2.19 | 53.9 | 139
11 | YXEGTFTSDYSIXLEKQAQXAFVEWLIKGGPSSGASXRHYYNWLTRQRY (Aib at 2, 13, 20, 37; DTyr 49; K28 side chain: C20DA-gGlu-gGlu-gGlu-gGlu-gGlu-gGlu-eLys; C-terminal NH2) [Compound 74] | 0.1 | 0.62 | 0.08 | 1.13 | 53.4 | 110
12 | YXEGTFTSDYSIXLEKQAQXAFVEWLIKGGPSSGQSLRHYYNWLTRQRY (Aib at 2, 13, 20; K28 side chain: C20DA-gGlu-gGlu-gGlu-gGlu-gGlu-gGlu-eLys; C-terminal NH2) [Compound 84] | 0.23 | 1.43 | 0.13 | 2.63 | 8.31 | 35.2

The remaining lines, values ahead:

Row | EC50, CreLuc assay, 0.5% hP (human GIP receptor) [nM] | EC50, CreLuc assay, 100% hP (human GIP receptor) [nM] | EC50, CreLuc assay, 0.5% hP (human GLP-1 receptor) [nM] | EC50, CreLuc assay, 100% hP (human GLP-1 receptor) [nM] | EC50, CreLuc assay, 0.5% hP [1] [nM] | EC50, CreLuc assay, 100% hP [1] [nM] | Binder
13 | 0.8 | 2.95 | 1.48 | 27.8 | 8.41 | 26.6 | YXEGTFTSDYSIXLEKEKQXAFVEWLIKGGPSSGASLRHYYNWLTRQRY (Aib at 2, 13, 20; K28 side chain: C20DA-gGlu-gGlu-gGlu-gGlu-gGlu-gGlu-eLys; C-terminal NH2) [Compound 69]
14 | 0.29 | 1.86 | 0.11 | 2.09 | 87.6 | 265 | YXEGTFTSDYSIXLEKQAQXAFVEWLIKGGPSSGASLRHYYNLXTRQRY (Aib at 2, 13, 20, 44; K28 side chain: C20DA-gGlu-gGlu-gGlu-gGlu-gGlu-gGlu-eLys; C-terminal NH2) [Compound 79]
15 | 0.13 | 0.64 | 0.14 | 1.13 | > 100 | > 1000 | YXEGTFTSDYSIXLEKQAQXAFVEWLIKGGPSSGASLRHYYNWLTXQRY (Aib at 2, 13, 20; hArg 46; DTyr 49; K28 side chain: C20DA-gGlu-gGlu-gGlu-gGlu-gGlu-gGlu-eLys; C-terminal NH2) [Compound 71]
16 | 0.2 | 1.39 | 0.1 | 1.91 | 31.5 | 158 | YXEGTFTSDYSIXLEKQAQXAFVEWLIKGGPSSGASXRHYXNWLTRQRY (Aib at 2, 13, 20, 37, 41; K28 side chain: C20DA-gGlu-gGlu-Glu-gGlu-gGlu-gGlu-eLys; C-terminal NH2) [Compound 76]
17 | 0.79 | 6.76 | 1.6 | 16.3 | 12.8 | 54.8 | YXEGTFTSDYSIXLEKQAQXAFVEWLIKGGPSYYVSLRHYYNWLTRQRY (Aib at 2, 13, 20; K28 side chain: C20DA-gGlu-gGlu-gGlu-gGlu-gGlu-gGlu-eLys; C-terminal NH2) [Compound 80]
18 | 0.28 | 2.62 | 0.3 | 22.2 | 16.2 | 67.2 | Y[Aib]EGTFTSDYSI[Aib]LEKQAQ[Aib]AFVEWLIK([εLys-γGlu-γGlu-γGlu-γGlu-γGlu-C20 diacid])GGPESPASLRHYYNWLTRQRY-NH2 (also: TFA salt) [Compound 70]
